Results published in US5789547.

Molecular target: human insulin-like growth factor-I (IGF-I) (human)

yield of correctly folded (native) protein by RP-HPLC after cofolding, against each protein refolded alone: 99.6%
Substance: human insulin-like growth factor binding protein-3 (IGFBP-3), recombinant, from pDJ12833 (from UniProt P17936)
